According to paper PMC9749489:

Tests used:
[1] = test system: Putidaredoxin W106A mutant; experiment: continuous-wave EPR; settings: other: continuous-wave EPR (high-spin to low-spin conversion of the heme)
[2] = test system: Putidaredoxin D38A mutant; experiment: continuous-wave EPR; settings: other: continuous-wave EPR (high-spin to low-spin conversion of the heme)

**Q.** “MTSL-P450cam (P450cam labelled with MTSL at S48C and S190C)” was tested. Which “conversion from the high-spin to low-spin state” value [1] did it give?
**A.** The value was “approximately 50% conversion”.

**Q.** And the “conversion from the high-spin to low-spin state” value [2]?
**A.** The value was “approximately 50% conversion”.
